Results on 20 molecules are retold here after US20120014954A1 (ABRAXIS BIOSCIENCE, published 2012).

To fix the notation:
T1: Secreted Protein, Acidic, Rich in Cysteines (SPARC) (UniProt P09486 18-303)
T1 construct: also called osteonectin; SPARC protein
T1 sequence (looked up): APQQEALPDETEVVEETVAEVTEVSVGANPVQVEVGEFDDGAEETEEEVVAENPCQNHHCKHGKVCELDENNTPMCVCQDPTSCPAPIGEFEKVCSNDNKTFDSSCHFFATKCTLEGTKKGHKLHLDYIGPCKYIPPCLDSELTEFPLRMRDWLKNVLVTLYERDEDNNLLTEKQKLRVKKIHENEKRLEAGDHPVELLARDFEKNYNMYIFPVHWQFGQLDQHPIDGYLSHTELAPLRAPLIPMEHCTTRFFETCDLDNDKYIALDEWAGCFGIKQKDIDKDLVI

T2: HTI SPARC (purified platelet SPARC obtained from HTI) (UniProt P09486 18-303)
T2 sequence (looked up): T1 sequence (looked up)

T3: Abx SPARC (SPARC from engineered HEK293 cells produced by Abraxis) (UniProt P09486 18-303, limits assumed)
T3 sequence (looked up): T1 sequence (looked up)

B1: PD 15 (peptide)
peptide: YTRLHHWIPPQR
notes: 12-mer from the Ph.D.-12 phage library; The peptide was cloned into pFUSE-hIgG1-Fc2 and expressed as the PD 15-Fc fusion; also called peptide 15; PD 15-Fc
B2: PD 21 (peptide)
peptide: VTPLLKFRALSS
notes: 12-mer from the Ph.D.-12 phage library; The peptide was cloned into pFUSE-hIgG1-Fc2 and expressed as the PD 21-Fc fusion; also called peptide 21; PD 21-Fc
B3: QILGYPTNLGPF (peptide)
peptide: QILGYPTNLGPF
notes: also called clone 135
B4: VGNMPFVHPHQW (peptide)
peptide: VGNMPFVHPHQW
notes: also called clone 192
B5: TTHSELSGYVEL (peptide)
peptide: TTHSELSGYVEL
notes: also called clone 188
B6: HYFSRTQTLSTL (peptide)
peptide: HYFSRTQTLSTL
notes: also called clone 194
B7: AAAPLNLSMTFP (peptide)
peptide: AAAPLNLSMTFP
notes: also called clone 182
B8: KAYLDSIPITPR (peptide)
peptide: KAYLDSIPITPR
notes: also called clone 60
B9: IPFATAAYNAPG (peptide)
peptide: IPFATAAYNAPG
notes: also called clone 191
B10: VSHPPRFPGWPQ (peptide)
peptide: VSHPPRFPGWPQ
notes: also called clone 59
B11: TSYLNSGMIPAR (peptide)
peptide: TSYLNSGMIPAR
notes: also called clone 63
B12: LSTHKLFHSHSQ (peptide)
peptide: LSTHKLFHSHSQ
notes: also called clone 180
B13: IDKPLHVVLALG (peptide)
peptide: IDKPLHVVLALG
notes: also called clone 184
B14: TQWHDDSTFYWL (peptide)
peptide: TQWHDDSTFYWL
notes: also called clone 186
B15: VPATRVSPTPYA (peptide)
peptide: VPATRVSPTPYA
notes: also called clone 133
B16: SAHTLAAWFAKP (peptide)
peptide: SAHTLAAWFAKP
notes: also called clone 204
B17: ScFv 2-1 (scFv)
scFv: EVQLLESGGGLVQPGGSLRLSCAASGFTFSSYAMSWVRQAPGKGLEWVSMITPLGSTTAYADSVKGRFTISRDNSKNTLYLQMNSLRAEDTAVYYCAKRAGVFDYWGQGTLVTVSSGGGGSGGGGSGGGGSTDIQMTQSPSSLSASVGDRVTITCRASQSISSYLNWYQQKPGKAPKLLIYRASTLQSGVPSRFSGSGSGTDFTLTISSLQPEDFATYYCQQNDSFPTTFGQGTKVEIKR
notes: It was purified from bacteria on a nickel column
B18: ScFv 3-2 (scFv)
scFv: EIVMTQSPGTLSLSPGDRATLSCRASQSVSGYLAWYQQKPGQAPRLLIYDASNRATGIPARFSGSGSGTDFTLTISSLQAEDVAVYYCQQYYSTLPTFGQGTKLEIKRSGGSTITSYNVYYTKLSSSGTQVQLVQSGGGVVQPGRPLKLSCAASGFTFSSYAMHWVRQAPGKGLEWVAVISYDGSNKYYADSVKGRFTISRDNSKNTLYLQMNSLRAEDTAVYYCARDLSWNDAFDIWGQGTMVTVSSAS
B19: AHPWRYTEPWSW (peptide)
peptide: AHPWRYTEPWSW
notes: also called clone 101; clone 154

One test addresses T1, Secreted Protein, Acidic, Rich in …. As to the kind of experiment: concentration-dependent binding ELISA.
For the molecule B1, the Kd (commonly the free concentration of one partner at which half of the binding sites on the other are occupied at equilibrium, for simple one-to-one binding) was 41 nM.
Still for that read-out and setting: with B2 the figure was 100 nM.

For another test the target is unchanged. As to the kind of experiment: concentration-dependent ELISA on SPARC. A general note: ELISA stands for enzyme-linked immunosorbent assay.
B1: the EC50 (read off the curve) (commonly the concentration at which the effect is half-maximal) is about 2 µg/mL and the Kd was 410 nM.
On the same counts, the results for B2 are about 3 µg/mL and 1 nM.

The target is the same in the next test. Briefly: phage ELISA on SPARC-coated wells; OD column 1 of 3. From the text:
(§1) Accordingly, a commercial peptide phage display library (12-mer peptides in M13) was screened for peptides which bind to SPARC. The target, SPARC is an acidic glycoprotein with a PI of 4.6. By immobilization on 96-wells plates with pH 9.6 coating buffer, Ph.D.-12 peptide library was screened four rounds to select peptide binders using phage display technology. Specifically, bound phages were eluted with an acidic eluting solution in the 1st round of screening. Then the screening stringency was enhanced gradually by decreasing the target protein concentration and increasing the percentage of Tween-20 in washing buffer. At the same time, competitive elution with excess target was adopted to improve the screening specificity. Finally, after four rounds of screening, ssDNA of selected clones were subjected to DNA sequencing. At the same time, the binding of the positive phages to the target protein was validated using phage ELISA.
B3 had an OD of 0.626.
Consider B4, for which the OD was 0.567.
Still for that read-out and setting: with B5 the figure was 0.716; with B1, 0.597.
On the same count and under the same terms, with B2 the figure was 0.45.
Still for that read-out and setting: with B6 the figure was 0.494; with B7, 0.756; with B8, 0.619.
B9 gave an OD of 0.564.
On to B10, for which the OD was 0.737.
Same read-out and setting: with B11 the figure was 0.688; with B12, 1.21.
B13 had an OD of 0.634.
Still for that read-out and setting: with B14 the figure was 0.903.
On the same count and under the same terms, with B15 the figure was 0.545; with B16, 0.8.

The target is the same in a further test. As to the kind of experiment: phage ELISA on SPARC-coated wells; OD column 2 of 3.
Source text: as §1
In the case of B3, the OD amounted to 0.652.
Still for that read-out and setting: with B4 the figure was 0.5; with B5, 0.682.
Still for that read-out and setting: with B1 the figure was 0.516; with B2, 0.443.
Same read-out and setting: with B6 the figure was 0.514; with B7, 0.782; with B8, 0.611.
For B9, the OD turned out to be 0.567.
The same measure, in the same setting: with B10 the figure was 0.628.
On the same count and under the same terms, with B11 the figure was 0.664; with B12, 1.28.
Still for that read-out and setting: with B13 the figure was 0.635; with B14, 0.985; with B15, 0.554.
The molecule B16 showed an OD of 0.748.

A further test has the same target. As to the kind of experiment: phage ELISA on SPARC-coated wells; OD column 3 of 3.
Source text: as §1
In turn, B3 gave an OD of 0.66.
The same measure, in the same setting: with B4 the figure was 0.539; with B5, 0.685.
Still for that read-out and setting: with B1 the figure was 0.576; with B2, 0.438.
On the same count and under the same terms, with B6 the figure was 0.521; with B7, 0.643.
On to B8, for which the OD is 0.605.
Still for that read-out and setting: with B9 the figure was 0.58; with B10, 0.733; with B11, 0.602.
Molecule B12 came in with an OD of 1.14.
Same read-out and setting: with B13 the figure was 0.554.
Still for that read-out and setting: with B14 the figure was 0.882; with B15, 0.5.
On the same count and under the same terms, with B16 the figure was 0.779.

Another test has as its target T2, HTI SPARC (purified platelet SPARC …). Briefly: Biacore, SPARC immobilised on the chip; S = soluble scFv. For orientation: SPR reads the build-up and loss of mass on a sensor chip optically.
For the molecule B17, binding was put at a Kd of 330 nM.

Another test deals with T3, Abx SPARC (SPARC from engineered HEK293 …). Described as above.
Consider B17, for which the Kd was found to be 370 nM.

The next test concerns the target T2, HTI SPARC (purified platelet SPARC …). Briefly: Biacore, SPARC immobilised on the chip; R = refolded scFv.
B18 registered a Kd of 78000 nM.

In the next test the target is T3, Abx SPARC (SPARC from engineered HEK293 …). The test is described as above.
Consider B18, for which the Kd stood at 1300 nM.

Another test concerns the target Secreted Protein, Acidic, Rich in Cysteines (SPARC) (UniProt P09486). As to the kind of experiment: phage display panning on immobilised SPARC; times isolated among 134 sequenced clones.
Take HLPKSLS (peptide): the Count worked out at 1.

The target of the next test is T1, Secreted Protein, Acidic, Rich in …. Described as above.
Source text: as §1
The molecule B19 came in with a Count of 6.
For the molecule B3, the Count amounted to 1.
On the same count and under the same terms, with B4 the figure was 1.
The same measure, in the same setting: with B5 the figure was 1; with B1, 1.
In turn, B2 yielded a Count of 2.
On the same count and under the same terms, with B6 the figure was 1; with B7, 1.
Molecule B8 had a Count of 1.
The same measure, in the same setting: with B9 the figure was 1; with B10, 1.
On the same count and under the same terms, with B11 the figure was 1; with B12, 1.
On the same count and under the same terms, with B13 the figure was 2.
In the case of B14, the Count turned out to be 2.
As for B15, the Count was found to be 1.
Same read-out and setting: with B16 the figure was 1.
